According to the RNAGym collection of RNA variant scans (doi:10.1073/pnas.2313332121):

B1: TPR t1 (parent)
chain: GACCAAUCUGCCCUCAGAGCUCGAGAACAUCUUCGGAUGCAGAGGAGGCAGGCUUCGGUGGCGCGAUAGCGCCAACGUCCUCAACCUCCAAUGCAUCCCACCACAUGAUGAUGCCUGAAGAGCCUUGGUUUUUUG

Variants of: B1
Experiment: polymerase ribozyme fitness, log enrichment relative to wild type (log ratio); higher = more active; in vitro selection for triplet polymerase activity
In short: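 Libraries of mutants in each subunit of a heterodimeric triplet polymerase ribozyme were generated by PCR and transcribed. In triplicate, each went through one in vitro selection round: annealing with biotinylated primer, partner subunit and triplets; frozen incubation at −7 °C; gel excision of extended constructs; streptavidin-bead capture; RT-PCR. Fitness, taken from Illumina sequencing of input and output libraries, is the logarithm of a genotype's enrichment over wild-type enrichment, averaged across replicates with inverse-variance weights. The logarithm is base 2, and genotypes needed ≥10 input reads and ≥1 read per output to be kept.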

Row | Variant | polymerase ribozyme fitness (log ratio)
1 | C72G C94A A119U | -1.99
2 | C70U U81C C99A U112A U125C | -6.54
3 | C72G C98A C101U G110U G120U C123G U130G | -6.41
4 | C72A G77A | -0.135
5 | G71A C104A U129A | -4.5
6 | C72A G93U G110U | -2.37
7 | C72G C79A | -0.874
8 | C72G C89A A90U | -2.32
9 | G71C G117A | -1.82
10 | G71C U87A | -2.35
11 | G71A U78C C123U U131A | -0.879
12 | C70U U92A | -4.11
13 | G71A U81C C88A C123G G135U | -0.881
14 | G71C C79U | 0.303
15 | G71A A91G | -2.18
16 | G71C C82G U109A C115A A118U C123A | -6.35
17 | G71U U81G C114A | -5.63
18 | G71U U92C | -1.11
19 | G71U G135U | -1.02
20 | C70U U131G | -2.36
21 | C72G C80A U81G C86A | -6.59
22 | C72A U96G U132A | -0.0408
23 | C72G C88U C123A | 0.243
24 | C72G A90G | -1.28

Row | Variant | polymerase ribozyme fitness (log ratio)
25 | C72A G120C | 1.31
26 | C72A U78A G110C | -4.71
27 | G71A G127U | -0.848
28 | G71U G120A | 0.754
29 | G71U G120U | -0.136
30 | G71A U96G | -1.35
31 | C72A C80U | 0.231
32 | G71C A100C | -2.78
33 | C72A C101U C124A G135A | 2.37
34 | G71A C115U | -1.95
35 | G71A C115A | -2.31
36 | G71U A74U C104A G117A C124U | -5.66
37 | G71C C80U | -4.42
38 | C72G C101A C114U | -3.4
39 | C70U U87C C123G | 2.6
40 | C70U U87A C97U U112A C115U G127A | -4.04
41 | C72G G117C | -3.87
42 | G71A A75G C104U | -0.612
43 | G71U C99G | -8.12
44 | G71U C97A C115U A119G | -5.37
45 | G71A C86U | 0.0346
46 | G71A C86A | -1.85
47 | G71C C114G | -4.37
48 | G71C | -1.04

Row | Variant | polymerase ribozyme fitness (log ratio)
49 | G71U | -0.118
50 | G71A | -0.673
51 | G71U C102A | -2.25
52 | C72A A100U U106C | -0.411
53 | C72A A91G U92G G113C | -2.41
54 | C72G A91C A95C A121G G128C U133G | -3.31
55 | C70U U126C | -0.89
56 | C70U U126G | -3.3
57 | G71U C104A U126C | -3.21
58 | G71A C72U | -1.32
59 | G71A C72A | -1.46
60 | G71U C73G | -5.51
61 | G71U C72G C123A | -2.68
62 | C72A C115A G135A | -0.346
63 | G71C U87G C98U G113C | -4.17
64 | C70U U106G C124U | -1.06
65 | C72A C79G | -1.13
66 | G71C C101A A121U U126G | -0.863
67 | C72G C86A U129C | -2.2
68 | C72G C86U U130C | -0.236
69 | G71U C86U | -0.637
70 | G71A U78C C114G | -5.04
71 | C72G C82U U131G | -0.338
72 | G71U A75G | -0.135

Row | Variant | polymerase ribozyme fitness (log ratio)
73 | C72A U109A | -4.06
74 | G71C G113A A121G U133A | -1.06
75 | C72G C114G U130G U133A | -3.37
76 | C72A A103U | -4.58
77 | G71C C94A G113C | -4.44
78 | G71A C79A C85U | -2.89
79 | C70U U106A U109G | -4.62
80 | C72G A84C | -0.56
81 | C72G A121U | 0.731
82 | C72G A121G | 0.881
83 | C72G C101A U106A A119U C123U | -4.15
84 | C72G G120C | 0.587
85 | C72G G120U | 0.278
86 | C72G G120A | 0.223
87 | G71U C101U C115A | -0.712
88 | C72G G135A | -0.341
89 | C72G G77U | -1.71
90 | C72G C85U | -1.45
91 | G71A C80U | -2.57
92 | G71C U132A | -0.602
93 | C72A U81A C86U U106A G128A U130A | -4.98
94 | G71A C94U C102A U112G G120A | -4.87
95 | C72A U133A | 0.191
96 | C72G U78C C82U C94A | -0.768

Row | Variant | polymerase ribozyme fitness (log ratio)
97 | G71C C82A A100U G120U | -1.87
98 | G71C A121G | 0.226
99 | G71C A108G | -2.34
100 | G71C G120U | -0.52
101 | C70U U87G | -0.364
102 | G71A C88A | -0.898
103 | G71U U78C | -0.468
104 | G71U U78G | -0.594
105 | C72G G122A C123G | 1.99
106 | C72A G77C U92C G122A | -3.67
107 | G71U C115A | 1.51
108 | G71A C82G | -2.5
109 | G71A C82U | -0.155
110 | C72G G77C A95G C101G | -2.74
111 | G71A G135A | -1.21
112 | G71A A90G | -1.65
113 | G71U G77C C89U G128C | -4.14
114 | C72A C82G U112G G117A U126C U129G | -5.85
115 | G71C A121C C123U C124U | -2.8
116 | C72G C115U U116C | -2.72
117 | G71A G107A C114U | -4.4
118 | C72A C88A G120U | -0.866
119 | G71A C73G G110A | -7.06
120 | C72A C104A A105U G120A | -2.67

Row | Variant | polymerase ribozyme fitness (log ratio)
121 | C72G C99U | -3.45
122 | G71A A83C G93C A118G | -2.9
123 | G71A U81A A84U | -2.93
124 | G71C G93C | -1.98
125 | C72A U81C U109A G110U U112G A121U U125A | -6.45
126 | C72G U78G C97U | 0.186
127 | C72G A111G G122A | -1.48
128 | C72G C102A A105C | -5.78
129 | G71U U112G | -0.608
130 | G71A G107A | -4.98
131 | G71U C85G C88G C115A | -5.75
132 | C70U U112G | -0.342
133 | C72A U87C C88G U116G | -3.6
134 | C72G C86A | -0.939
135 | C72G C86G | -2.24
136 | C72G C86U | 0.195
137 | C72A U92A A121U U125G | -1.7
138 | C72G A100U G113U C124U | -4.64
139 | G71C C85A C101U A105C | -5.59
140 | G71A C124G | 0.316
141 | C72A G113C | -2.03
142 | C72G C101A U125G | -1.8
143 | G71C C72G C123G | -5.34
144 | C72G C97U | -1.05

Row | Variant | polymerase ribozyme fitness (log ratio)
145 | C72G G93U | -1.16
146 | G71C G122A | -2.06
147 | G71U U78A C80U C114G | -2.44
148 | C72A C102A U125G | -2.01
149 | G71U C94A | -1.14
150 | G71U C94G | -1.13
151 | G71C G113C | -2.72
152 | C72G C86U A111U C115A | -4.83
153 | C72G U78C G113A | -1.93
154 | C70U U133G | -1.12
155 | C70U U81A U116G U125A | -5.57
156 | G71C U112G | -1.66
157 | C72A U125A | -0.026
158 | C72A U125C | -1.51
159 | G71U G120A C123U U133G | -3.23
160 | G71U G93U C104U A119G | 0.516
161 | C70U U96G U125A | -1.32
162 | G71C G93A C102A | -5.09
163 | C72G A90C C101U | -1.47
164 | C72G C88A G113U G127C | -5.08
165 | C72A A111C | -0.314
166 | C72A A111U | -2.42
167 | G71U C80G G107U G117A | -6.69
